“Also recorded” adds a separate entry of the source.
B1: Arch D95N: D95N mutant of Archaerhodopsin 3 without photocurrent, voltage indicator (protein, UniProt P96787 7-258, looked up, variant D95N)
Archaerhodopsin-3: QAGYDLLGDGRPETLWLGIGTLLMLIGTFYFLVRGWGVTDKDAREYYAVTILVPGIASAAYLSMFFGIGLTEVTVGGEMLDIYYARYANWLFTTPLLLLDLALLAKVDRVTIGTLVGVDALMIVTGLIGALSHTAIARYSWWLFSTICMIVVLYFLATSLRSAAKERGPEVASTFNTLTALVLVLWTAYPILWIIGTEGAGVVGLGIETLLFMVLDVTAKVGFGFILLRSRAILGDTEAPEPSAGADVSAAD

Assays:
E. coli = assay: Chemical perturbation of fluorescence flashing of E. coli expressing PROPS; type: cell-based; conditions: 20 μg/mL
Excerpt: PROPS was expressed in E. coli, the cells were immobilized on a glass coverslip, and imaged in an inverted epifluorescence microscope while gently flowing minimal medium at pH 7 over the cells. […] The flashes occurred simultaneously (to within the 10 ms imaging resolution) and homogeneously over the extent of a cell. Flashes were uncorrelated between neighboring cells.
Flashing cells were subjected to chemical perturbations in an effort to deduce the mechanism of the voltage changes. In unstirred medium in a sealed chamber, the flashing ceased over ˜15 minutes; but re-started upon addition of freshly oxygenated medium. Removal of oxygen from the medium using Oxyrase also reversibly eliminated flashing. From these experiments it was concluded that flashing requires aerobic respiration. Under continuous gentle flow of aerated minimal medium, cells flashed continuously for >1 hr. Cells stored in minimal media for several days at 4° C. started flashing when warmed to room temperature.
Flashing was highly sensitive to pHo, occurring only between pH 7 and 9. Flashing frequencies increased and on-time decreased at lower pH. Flashing was more likely to be periodic at lower pH. Extremes of pH (<6 or >9.5) irreversibly eliminated flashing, causing cells to enter the bright state in an abrupt transition.

HEK-293 cells = assay: Fluorescence versus membrane potential under whole-cell voltage clamp (ramp, step, frequency response, noise); type: cell-based, human
Method: Fluorescence of Arch 3 in HEK 293 cells was readily imaged in an inverted fluorescence microscope with red illumination (λ=640 nm, I=540 W/cm^2), a high numerical aperture objective, a Cy5 filter set, and an EMCCD camera. […] Cells not expressing Arch were not fluorescent.
HEK-293 cells were grown at 37° C., 5% CO2, in DMEM supplemented with 10% FBS and penicillin-streptomycin. Plasmids were transfected using LIPOFECTAMINE™ and PLUS reagent (Invitrogen) following the manufacturer's instructions, and assayed between 48-72 hours later. The day before recording, cells were re-plated onto glass-bottom dishes (MatTek) at a density of ˜5000 cells/cm^2.
The concentration of endogenous retinal in the HEK cells was not known, so the cells were supplemented with retinal by diluting stock retinal solutions (40 mM, DMSO) in growth medium to a final concentration of 5 μM, and then placing the cells back in the incubator for 1-3 hours. All imaging and electrophysiology were performed in Tyrode's buffer (containing, in mM: 125 NaCl, 2 KCl, 3 CaCl2, 1 MgCl2, 10 HEPES, 30 glucose pH 7.3, and adjusted to 305-310 mOsm with sucrose). Only HEK cells having reversal potentials between −10 and −40 mV were included in the analysis.
Simultaneous fluorescence and whole-cell patch clamp recordings were acquired on a home-built, inverted epifluorescence microscope at room temperature. A diode laser operating at 100 mW, 640 nm (CrystaLaser, DL638-100-O) provided wide-field illumination at an intensity typically between 500-2000 W/cm^2. To minimize background signal from out-of-focus debris, illumination was often performed in through-the-objective total internal reflection fluorescence (TIRF) mode. Fluorescence emission was collected using a 60×, 1.45 NA oil immersion objective (Olympus), and separated from scattered excitation using a 660-760 nm bandpass emission filter (Chroma). For fast imaging of dynamic fluorescence responses and action potentials, images were acquired on an Andor iXon^+ 860 camera operating at up to 2,000 frames/s (using a small region of interest and pixel binning). Slower images with higher spatial resolution were acquired on an Andor iXon^+ 897 EMCCD. Custom software written in LabView (National Instruments) was used to synchronize illumination, collection of images, recording of membrane potential and cell current, and application of electrical stimuli to the cell.
Filamented glass micropipettes (WPI) were pulled to a tip resistance of 3-10 MΩ, fire polished, and filled with internal solution (containing, in mM: 125 Potassium gluconate, 8 NaCl, 0.6 MgCl2, 0.1 CaCl2, 1 EGTA, 10 HEPES, 4 Mg-ATP, 0.4 Na-GTP, pH 7.3; adjusted to 295 mOsm with sucrose). The micropipettes were positioned with a Burleigh PCS 5000 micromanipulator. Whole-cell, voltage clamp recordings were acquired using an AxoPatch 200B amplifier (Molecular Devices), filtered at 2 kHz with the internal Bessel filter, and digitized with a National Instruments PCIE-6323 acquisition board at 10 kHz. Ambient 60 Hz noise was removed using a HumBug Noise Eliminator (AutoMate Scientific). For experiments requiring rapid modulation of transmembrane potential, series resistance and whole-cell capacitance were predicted to 95% and corrected to ˜50%. Electrical stimuli were generated using the PCIE-6323 acquisition board and sent to the AXOPATCH™, which then applied these signals in either constant current or constant voltage mode.
To measure fluorescence as a function of membrane potential, a triangle wave was applied, with amplitude from −150 mV to +150 mV and period 12 s, with video recording at 100 ms per frame. A pixel weight matrix was calculated according to Eq. S2 and applied to the movie images to generate a fluorescence number for each frame. These fluorescence values were divided by their minimum value (at V=−150 mV). The result is plotted as a function of Vin FIGS. 7 and 8. […]

HEK cells = assay: Photocurrents under 640 nm illumination in voltage-clamped cells; type: cell-based, human; conditions: illumination at 640 nm
Method: Measurements of photocurrents were performed on HEK cells held in voltage clamp at 0 mV while being exposed to brief (200 ms) pulses of illumination at 640 nm at an intensity of 1800 W/cm^2.

neurons = assay: Light-induced photocurrent and perturbation of membrane potential in neurons; type: cell-based, rat; conditions: 640 nm, 1800 W/cm2
Excerpt: Under illumination conditions typically used for imaging neural activity (I=1800 W/cm2 in total internal reflection (TIR) mode), the light-induced outward photocurrent was typically 10 pA in neurons expressing Arch 3 WT. Under current-clamp conditions this photocurrent shifted the resting potential of the neurons by up to −20 mV. For neurons near their activation threshold, this photocurrent could suppress firing (FIG. 9A), so we explored the non-pumping variant D95N as a voltage indicator in neurons.
Whole-cell current clamp recordings were obtained from mature neurons under the same conditions used for HEK cells recordings. Series resistance and pipette capacitance were corrected. Only neurons having resting potentials between −50 and −70 mV were used in the analysis.

[1] = Spectroscopic characterization of purified Arch WT and D95N; type: physicochemical
Method: FIGS. 17A-17C show pH-dependent spectra of Arch 3 WT and D95N. […] At neutral pH, Arch absorbed maximally at 558 nm. Fluorescence emission (dashed line) was recorded on 2 μM protein solubilized in 1% DM, with λexc=532 nm. […] The absorption maximum was at 585 nm. […] Singular Value Decomposition of absorption spectra between 400-750 nm was used to calculate the fraction of the SB in the protonated state as a function of pH. The result was fit to a Hill function to determine the pKa of the SB.
Arch and its D95N mutant were expressed and purified from E. coli, following Bergo, V., et al. (Conformational changes detected in a sensory rhodopsin II-transducer complex. J. Biol. Chem. 278, 36556-36562 (2003)). Briefly, E. coli (strain BL21, pet28b plasmid) was grown in 1 L of LB with 100 μg/mL kanamycin, to an O.D 600 of 0.4 at 37° C. All-trans retinal (5 μM) and inducer (IPTG 0.5 mM) were added and cells were grown for an additional 3.5 hours in the dark. Cells were harvested by centrifugation and resuspended in 50 mM Tris, 2 mM MgCl2 at pH 7.3 and lysed with a tip sonicator for 5 minutes. The lysate was centrifuged and the pellet was resuspended in PBS supplemented with 1.5% dodecyl maltoside (DM). The mixture was homogenized with a glass/teflon Potter Elvehjem homogenizer and centrifuged again. The supernatant was concentrated and washed using a centricon 30k MWCO filter to a final volume of 3 mL.
The absorption spectra of purified Arch 3 WT and D95N were determined using an Ocean Optics USB4000 spectrometer with a DT-MINI-2-GS light source. Absorption spectra, for Arch 3 WT and D95N, were measured as a function of pH between pH 6 and 11. To determine the fluorescence emission spectra, proteins in a quartz cuvette were illuminated with the uncollimated beam of a 100 mW, 532 nm laser (Dragon Lasers, 532GLM100) or a 25 mW, 633 nm HeNe laser (Spectra-Physics). Scattered laser light was blocked with a 532 nm Raman notch filter (Omega Optical, XR03) or a 710/100 emission filter (Chroma), and fluorescence was collected perpendicular to the illumination with a 1000 micron fiber, which passed the light to an Ocean Optics QE65000 spectrometer. Spectra were integrated for 2 seconds.
The fluorescence quantum yields of Arch 3 WT and D95N were determined by comparing the integrated emission intensity to emission of a sample of the dye ALEXA FLUOR® 647 Conjugate. Briefly, the concentrations of micromolar solutions of dye and protein were determined using a visible absorption spectrum. […] The fluorescence emission spectra of dye and protein samples were measured with 633 nm excitation. The quantum yield was then determined by the formula
where Fl is the integrated fluorescence from 660 to 760 nm, ε is the extinction coefficient at 633 nm and c is the concentration.

Molecule	effect on blinking (E. coli)	comparison with Arch 3 WT (HEK-293 cells)	voltage steps resolved/reported (HEK-293 cells; HEK cells) [mV]	fast component of step response, time (HEK-293 cells; step response) [μs]	response time to a step in membrane potential (HEK-293 cells; steps between −70 mV and +30 mV) [ms]	increase of fluorescence (fold/factor) between −150 mV and +150 mV (HEK-293 cells; whole-cell voltage clamp)	photocurrent / photoinduced proton pumping (HEK cells)	photocurrent / photoinduced proton pumping (HEK cells; listed as Arch 3 D95N)	effect of illumination on membrane potential (neurons)	ε633 ([1]; calibrated assuming peak extinction coefficient of Bacteriorhodopsin, 63,000 M^−1 cm^−1)	QY ([1]; comparison to Alexa 647, excitation at 633 nm)
N#CC(C#N)=NNc1cccc(Cl)c1 [CCCP, Carbonyl cyanide 3-chlorophenylhydrazone]	rapidly and irreversibly eliminated the blinking										
B1		more sensitive and brighter than Arch 3 WT, but had a slower response	10	< 500	40	3	no photocurrent; also recorded: eliminated the photocurrent	lacks photoinduced proton pumping	no effect of illumination on spiking or resting potential; also recorded: did not perturb membrane potential	37,500 M^−1cm^−1	4 × 10^−4

— patent US9057734B2, “Optogenetic probes for measuring membrane potential” (President and Fellows of Harvard College, priority 2010, dated 2015)
